# Measured values taken from US20160272683A1 (Novo Nordisk, published 2016).
# * marks the point of attachment. C18 diacid = O=C(O)CCCCCCCCCCCCCCCCC(=O)*
# T1: human calcitonin receptor (human, UniProt P30988 25-474)
# T1 construct: whole, on cells; also called hCT-R; hCTR
# T1 sequence (looked up): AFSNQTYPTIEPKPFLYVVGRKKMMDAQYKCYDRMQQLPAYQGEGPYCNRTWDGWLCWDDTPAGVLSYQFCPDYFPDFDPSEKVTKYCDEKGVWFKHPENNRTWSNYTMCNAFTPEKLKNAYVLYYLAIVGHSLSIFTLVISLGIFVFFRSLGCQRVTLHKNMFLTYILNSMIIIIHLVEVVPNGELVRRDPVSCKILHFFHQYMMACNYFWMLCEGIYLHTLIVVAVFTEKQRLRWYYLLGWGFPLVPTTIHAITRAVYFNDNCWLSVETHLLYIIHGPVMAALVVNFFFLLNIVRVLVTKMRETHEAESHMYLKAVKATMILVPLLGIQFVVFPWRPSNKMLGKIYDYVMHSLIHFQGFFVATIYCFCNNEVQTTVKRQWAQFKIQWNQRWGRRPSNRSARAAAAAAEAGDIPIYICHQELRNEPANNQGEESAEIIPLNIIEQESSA
# Target: T1, human calcitonin receptor
# Assay: whole-cell competition vs 125I-human calcitonin (Assay VIIa)
# Procedure: The binding assay was performed using a BHK tk'ts 13 cell line was stably transfected with the human calcitonin receptor, and a CRE-responsive luciferase reporter gene.
# The day before the assay the cells were Seeded into Poly-D-Lysin coated 384W Opaque White, BD BioCoat plates (10000 cells/well) and Incubated overnight at 37° C., 5% CO2, 95% humidity. […] The morning after, the plates were washed three times in HBSS (4° C.), and lyzed in Lysis buffer (0.1 M NaOH), 1% SDS. Scintillation cocktail (MicroScint40®) was added and the plates were shaken at 500 rpm for a short period. The plate was incubated at room temperature in the dark for 1 hour and Read on a TopCounter™ (Packard). The IC₅₀ was calculated using (one site binding competition analysis) GraphPad Prism5 as a measure of receptor affinity.
row,IC50,Binder
1,0.351 nM,"{C18 diacid}-EPSELSTAVLGRLSAELHELATLPRTETGPESP-NH2 (SMILES CC(C)C[C@H](NC(=O)[C@H](CCC(=O)O)NC(=O)[C@H](Cc1c[nH]cn1)NC(=O)[C@H](CC(C)C)NC(=O)[C@H](CCC(=O)O)NC(=O)[C@H](C)NC(=O)[C@H](CO)NC(=O)[C@H](CC(C)C)NC(=O)[C@H](CCCNC(=N)N)NC(=O)CNC(=O)[C@H](CC(C)C)NC(=O)[C@@H](NC(=O)[C@H](C)NC(=O)[C@@H](NC(=O)[C@H](CO)NC(=O)[C@H](CC(C)C)NC(=O)[C@H](CCC(=O)O)NC(=O)[C@H](CO)NC(=O)[C@@H]1CCCN1C(=O)[C@H](CCC(=O)O)NC(=O)CCCCCCCCCCCCCCCCC(=O)O)[C@@H](C)O)C(C)C)C(=O)N[C@@H](C)C(=O)N[C@H](C(=O)N[C@@H](CC(C)C)C(=O)N1CCC[C@H]1C(=O)N[C@@H](CCCNC(=N)N)C(=O)N[C@H](C(=O)N[C@@H](CCC(=O)O)C(=O)N[C@H](C(=O)NCC(=O)N1CCC[C@H]1C(=O)N[C@@H](CCC(=O)O)C(=O)N[C@@H](CO)C(=O)N1CCC[C@H]1C(N)=O)[C@@H](C)O)[C@@H](C)O)[C@@H](C)O, also called Ex. #28) [[N-terminal(C18 diacid), 2P, 9V]mimylin]"
2,0.413 nM,"{C18 diacid}-EASEISTAILGRLSAELHELATLPRTETGPESP-NH2 (SMILES CC[C@H](C)[C@H](NC(=O)[C@H](C)NC(=O)[C@@H](NC(=O)[C@H](CO)NC(=O)[C@@H](NC(=O)[C@H](CCC(=O)O)NC(=O)[C@H](CO)NC(=O)[C@H](C)NC(=O)[C@H](CCC(=O)O)NC(=O)CCCCCCCCCCCCCCCCC(=O)O)[C@@H](C)CC)[C@@H](C)O)C(=O)N[C@@H](CC(C)C)C(=O)NCC(=O)N[C@@H](CCCNC(=N)N)C(=O)N[C@@H](CC(C)C)C(=O)N[C@@H](CO)C(=O)N[C@@H](C)C(=O)N[C@@H](CCC(=O)O)C(=O)N[C@@H](CC(C)C)C(=O)N[C@@H](Cc1c[nH]cn1)C(=O)N[C@@H](CCC(=O)O)C(=O)N[C@@H](CC(C)C)C(=O)N[C@@H](C)C(=O)N[C@H](C(=O)N[C@@H](CC(C)C)C(=O)N1CCC[C@H]1C(=O)N[C@@H](CCCNC(=N)N)C(=O)N[C@H](C(=O)N[C@@H](CCC(=O)O)C(=O)N[C@H](C(=O)NCC(=O)N1CCC[C@H]1C(=O)N[C@@H](CCC(=O)O)C(=O)N[C@@H](CO)C(=O)N1CCC[C@H]1C(N)=O)[C@@H](C)O)[C@@H](C)O)[C@@H](C)O, also called Ex. #25) [[N-terminal(C18 diacid), 5I, 9I]mimylin]"
3,0.577 nM,"{C18 diacid}-EASEHSTAALGRLSAELHELATLPRTETGPESP-NH2 (SMILES CC(C)C[C@H](NC(=O)[C@H](C)NC(=O)[C@H](C)NC(=O)[C@@H](NC(=O)[C@H](CO)NC(=O)[C@H](Cc1c[nH]cn1)NC(=O)[C@H](CCC(=O)O)NC(=O)[C@H](CO)NC(=O)[C@H](C)NC(=O)[C@H](CCC(=O)O)NC(=O)CCCCCCCCCCCCCCCCC(=O)O)[C@@H](C)O)C(=O)NCC(=O)N[C@@H](CCCNC(=N)N)C(=O)N[C@@H](CC(C)C)C(=O)N[C@@H](CO)C(=O)N[C@@H](C)C(=O)N[C@@H](CCC(=O)O)C(=O)N[C@@H](CC(C)C)C(=O)N[C@@H](Cc1c[nH]cn1)C(=O)N[C@@H](CCC(=O)O)C(=O)N[C@@H](CC(C)C)C(=O)N[C@@H](C)C(=O)N[C@H](C(=O)N[C@@H](CC(C)C)C(=O)N1CCC[C@H]1C(=O)N[C@@H](CCCNC(=N)N)C(=O)N[C@H](C(=O)N[C@@H](CCC(=O)O)C(=O)N[C@H](C(=O)NCC(=O)N1CCC[C@H]1C(=O)N[C@@H](CCC(=O)O)C(=O)N[C@@H](CO)C(=O)N1CCC[C@H]1C(N)=O)[C@@H](C)O)[C@@H](C)O)[C@@H](C)O, also called Ex. #17) [[N-terminal(C18 diacid), 5H]mimylin]"
4,1.1 nM,"{C18 diacid}-EASEISTAIIGRLSAELHEIATLPRTETGPESP-NH2 (SMILES CC[C@H](C)[C@H](NC(=O)[C@H](C)NC(=O)[C@@H](NC(=O)[C@H](CO)NC(=O)[C@@H](NC(=O)[C@H](CCC(=O)O)NC(=O)[C@H](CO)NC(=O)[C@H](C)NC(=O)[C@H](CCC(=O)O)NC(=O)CCCCCCCCCCCCCCCCC(=O)O)[C@@H](C)CC)[C@@H](C)O)C(=O)N[C@H](C(=O)NCC(=O)N[C@@H](CCCNC(=N)N)C(=O)N[C@@H](CC(C)C)C(=O)N[C@@H](CO)C(=O)N[C@@H](C)C(=O)N[C@@H](CCC(=O)O)C(=O)N[C@@H](CC(C)C)C(=O)N[C@@H](Cc1c[nH]cn1)C(=O)N[C@@H](CCC(=O)O)C(=O)N[C@H](C(=O)N[C@@H](C)C(=O)N[C@H](C(=O)N[C@@H](CC(C)C)C(=O)N1CCC[C@H]1C(=O)N[C@@H](CCCNC(=N)N)C(=O)N[C@H](C(=O)N[C@@H](CCC(=O)O)C(=O)N[C@H](C(=O)NCC(=O)N1CCC[C@H]1C(=O)N[C@@H](CCC(=O)O)C(=O)N[C@@H](CO)C(=O)N1CCC[C@H]1C(N)=O)[C@@H](C)O)[C@@H](C)O)[C@@H](C)O)[C@@H](C)CC)[C@@H](C)CC, also called Ex. #77) [[N-terminal(C18 diacid), 5I, 9I, 10I, 20I]mimylin]"
5,0.368 nM,"{C18 diacid}-EASEISTAALGRLSAELHELATLPRTETGPESP-NH2 (SMILES CC[C@H](C)[C@H](NC(=O)[C@H](CCC(=O)O)NC(=O)[C@H](CO)NC(=O)[C@H](C)NC(=O)[C@H](CCC(=O)O)NC(=O)CCCCCCCCCCCCCCCCC(=O)O)C(=O)N[C@@H](CO)C(=O)N[C@H](C(=O)N[C@@H](C)C(=O)N[C@@H](C)C(=O)N[C@@H](CC(C)C)C(=O)NCC(=O)N[C@@H](CCCNC(=N)N)C(=O)N[C@@H](CC(C)C)C(=O)N[C@@H](CO)C(=O)N[C@@H](C)C(=O)N[C@@H](CCC(=O)O)C(=O)N[C@@H](CC(C)C)C(=O)N[C@@H](Cc1c[nH]cn1)C(=O)N[C@@H](CCC(=O)O)C(=O)N[C@@H](CC(C)C)C(=O)N[C@@H](C)C(=O)N[C@H](C(=O)N[C@@H](CC(C)C)C(=O)N1CCC[C@H]1C(=O)N[C@@H](CCCNC(=N)N)C(=O)N[C@H](C(=O)N[C@@H](CCC(=O)O)C(=O)N[C@H](C(=O)NCC(=O)N1CCC[C@H]1C(=O)N[C@@H](CCC(=O)O)C(=O)N[C@@H](CO)C(=O)N1CCC[C@H]1C(N)=O)[C@@H](C)O)[C@@H](C)O)[C@@H](C)O)[C@@H](C)O, also called Ex. #8) [[N-terminal(C18 diacid), 5I]mimylin]"
6,0.478 nM,"{C18 diacid}-EASPLSTAVLGRLSAELHELATLPRTETGPESP-NH2 (SMILES CC(C)C[C@H](NC(=O)[C@H](CCC(=O)O)NC(=O)[C@H](Cc1c[nH]cn1)NC(=O)[C@H](CC(C)C)NC(=O)[C@H](CCC(=O)O)NC(=O)[C@H](C)NC(=O)[C@H](CO)NC(=O)[C@H](CC(C)C)NC(=O)[C@H](CCCNC(=N)N)NC(=O)CNC(=O)[C@H](CC(C)C)NC(=O)[C@@H](NC(=O)[C@H](C)NC(=O)[C@@H](NC(=O)[C@H](CO)NC(=O)[C@H](CC(C)C)NC(=O)[C@@H]1CCCN1C(=O)[C@H](CO)NC(=O)[C@H](C)NC(=O)[C@H](CCC(=O)O)NC(=O)CCCCCCCCCCCCCCCCC(=O)O)[C@@H](C)O)C(C)C)C(=O)N[C@@H](C)C(=O)N[C@H](C(=O)N[C@@H](CC(C)C)C(=O)N1CCC[C@H]1C(=O)N[C@@H](CCCNC(=N)N)C(=O)N[C@H](C(=O)N[C@@H](CCC(=O)O)C(=O)N[C@H](C(=O)NCC(=O)N1CCC[C@H]1C(=O)N[C@@H](CCC(=O)O)C(=O)N[C@@H](CO)C(=O)N1CCC[C@H]1C(N)=O)[C@@H](C)O)[C@@H](C)O)[C@@H](C)O, also called Ex. #30) [[N-terminal(C18 diacid), 4P, 9V]mimylin]"
7,0.309 nM,"{C18 diacid}-EAPELSTAVLGRLSAELHELATLPRTETGPESP-NH2 (SMILES CC(C)C[C@H](NC(=O)[C@H](CCC(=O)O)NC(=O)[C@H](Cc1c[nH]cn1)NC(=O)[C@H](CC(C)C)NC(=O)[C@H](CCC(=O)O)NC(=O)[C@H](C)NC(=O)[C@H](CO)NC(=O)[C@H](CC(C)C)NC(=O)[C@H](CCCNC(=N)N)NC(=O)CNC(=O)[C@H](CC(C)C)NC(=O)[C@@H](NC(=O)[C@H](C)NC(=O)[C@@H](NC(=O)[C@H](CO)NC(=O)[C@H](CC(C)C)NC(=O)[C@H](CCC(=O)O)NC(=O)[C@@H]1CCCN1C(=O)[C@H](C)NC(=O)[C@H](CCC(=O)O)NC(=O)CCCCCCCCCCCCCCCCC(=O)O)[C@@H](C)O)C(C)C)C(=O)N[C@@H](C)C(=O)N[C@H](C(=O)N[C@@H](CC(C)C)C(=O)N1CCC[C@H]1C(=O)N[C@@H](CCCNC(=N)N)C(=O)N[C@H](C(=O)N[C@@H](CCC(=O)O)C(=O)N[C@H](C(=O)NCC(=O)N1CCC[C@H]1C(=O)N[C@@H](CCC(=O)O)C(=O)N[C@@H](CO)C(=O)N1CCC[C@H]1C(N)=O)[C@@H](C)O)[C@@H](C)O)[C@@H](C)O, also called Ex. #29) [[N-terminal(C18 diacid), 3P, 9V]mimylin]"
